The results in this text go back to patent publication US8492329B2, “Bioactive peptides and methods of using same” (Compugen Ltd., priority 2007, dated 2013).

No end group written: not given here.

The target of the assay is T1, LGR7 (RXFP1) (Homo sapiens, UniProt Q9HBX9).
T1 sequence (Q9HBX9 1-757): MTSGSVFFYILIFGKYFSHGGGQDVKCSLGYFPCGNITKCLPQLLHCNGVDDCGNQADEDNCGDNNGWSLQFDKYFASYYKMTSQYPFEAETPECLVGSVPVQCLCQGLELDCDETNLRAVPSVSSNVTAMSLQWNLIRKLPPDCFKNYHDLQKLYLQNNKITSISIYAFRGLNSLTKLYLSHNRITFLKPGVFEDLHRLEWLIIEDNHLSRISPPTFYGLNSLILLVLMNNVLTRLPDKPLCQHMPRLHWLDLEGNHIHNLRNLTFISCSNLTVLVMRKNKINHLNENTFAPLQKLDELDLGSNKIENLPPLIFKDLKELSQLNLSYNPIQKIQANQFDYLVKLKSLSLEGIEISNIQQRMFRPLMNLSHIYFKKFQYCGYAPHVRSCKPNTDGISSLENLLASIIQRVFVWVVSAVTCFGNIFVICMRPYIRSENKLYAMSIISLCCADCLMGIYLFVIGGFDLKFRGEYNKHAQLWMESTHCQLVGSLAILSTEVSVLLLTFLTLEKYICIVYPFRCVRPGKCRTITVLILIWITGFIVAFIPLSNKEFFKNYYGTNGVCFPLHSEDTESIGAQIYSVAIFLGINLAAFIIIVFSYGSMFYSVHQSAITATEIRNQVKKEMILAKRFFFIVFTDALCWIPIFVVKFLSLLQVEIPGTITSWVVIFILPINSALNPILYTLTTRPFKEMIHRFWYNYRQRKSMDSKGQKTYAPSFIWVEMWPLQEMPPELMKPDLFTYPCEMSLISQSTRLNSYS
Description: cAMP accumulation (Hit Hunter cAMP kit) in CHO-K1 cells transiently transfected with LGR7. It counts as cell-based. More on the design: expressed in transfected cells; host or cells: CHO-K1 (transient). As to conditions: for cAMP inhibition (Gi) effect: 1 uM, LGR7 CHO-K1 cells pre-treated with 10 uM Forskolin, FIG. 1; for cAMP dose response with Forskolin / Gs (cAMP increase) dose response without Forskolin: LGR7; for cAMP dose response with Forskolin: 10 uM Forskolin, 1 nM to 10 uM, FIG. 4A; for Gs (cAMP increase) dose response without Forskolin: low concentrations 3-100 nM, FIG. 4B. How it is done: The ability of Peptides to affect cAMP concentration was examined in CHO-K1 cells transiently transfected with LGR7 (RXFP1) or LGR8 (RXFP2). The experiment measured cAMP concentration in response to the addition of the peptides.
LGR7 (RXFP1) or LGR8 (RXFP2) were transiently transfected into CHO-K1 cells as follows: Cells (12 million) were plated into T75 flasks on the day preceding transfection. Cells were transfected with a GPCR DNA and Gα16 using a lipid technique according to the manufacturer's recommendation. Cells were transfected for 5 hours, then re-plated into 96-well dishes (60,000 cells per well) and grown overnight. Transfected cells were plated into 24 wells of a 96-well plate. Cells were pre-treated with 0.5 mM IBMX (stimulation buffer) for 10 min at 37° C., then stimulated with either a positive control (Relaxin 2) or a candidate peptide (for Gs functional examination), followed by stimulation or a preincubation with 10 μM forskolin (for Gi functional examination). Following a 20 minutes stimulation by incubation with 1 μM of either positive control or the tested peptides, either with or without forskolin, intracellular cAMP was assayed using the Hit Hunter cAMP kit (DiscoveRx Corporation) according to the manufacturer's recommended protocol. Data was converted to nmol of cAMP by running a standard cAMP curve.
Relaxin was used as a positive control. cAMP level was elevated by pre-treatment with forskolin.
The transfected CHO-K1 cells were treated with 10 uM of Forskolin (Applied cell sciences (ACS)) for 10 minutes and then challenged with 1 uM of H2 Relaxin (ACS) (as a positive control), 1 uM of Peptide P59C13V (P59) (SEQ ID NO: 6), and Peptide P74C13V (P74) (SEQ ID NO: 10).
CHO-K1 cells transiently transfected with LGR7 (RXFP1) were treated with 10 uM of Forskolin for 10 minutes and then challenged with either H2 Relaxin (as a positive control), P59C13V (P59) (SEQ ID NO: 6) or P74C13V (P74) (SEQ ID NO: 10) at increasing concentrations, from 1 nm to 10 uM (FIG. 4A) and from 3 nM to 100 nM (FIG. 4B). cAMP concentrations were determined at each point, as described above with (FIG. 4A) or without (FIG. 4B) the presence of Forskolin.
A general note: Cyclic AMP is a second messenger, typically raised through Gs and lowered through Gi signalling.

Consider “GQKGQVGPPGAAVRRAYAAFSV [Peptide P59C13V]”, for which the “cAMP inhibition (Gi) effect” value is “clear cAMP inhibition (Gi) effect”, the “cAMP dose response with Forskolin” value was “bell-shaped curve” and the “Gs (cAMP increase) dose response without Forskolin” value is “dose dependent increase in cAMP”.

With “GQKGQVGPPGAAVRRAYAAFSVGRRAYAAFSV-OH [Peptide P74C13V]”, the “cAMP inhibition (Gi) effect” value is recorded as “clear cAMP inhibition (Gi) effect” and the “cAMP dose response with Forskolin” value is given as “no significant effect”.

Take “H2 Relaxin: H2 Relaxin (ACS), positive control, known ligand of LGR7 (RXFP1) [reference compound]”: the “cAMP inhibition (Gi) effect” value was “affected only the LGR7 (RXFP1) receptor”, the “cAMP dose response with Forskolin” value is given as “dose dependent decrease (Gi) effect” and the “Gs (cAMP increase) dose response without Forskolin” value is listed as “dose dependent increase in cAMP”.
